# Experimental data taken from the RNAGym collection of RNA variant scans (doi:10.7554/elife.80360).
# B1: HDV Ribozyme (parent)
# chain: GGCCGGCAUGGUCCCAGCCUCCUCGCUGGCGCCGGCUGGGCAACAUUCCGAGGGGACCGUCCCCUCGGUAAUGGCGAAUGGGACCCA
# Variants of: B1
# Assay: self-cleavage, relative activity (ratio to wild type); higher = more cleavage; co-transcriptional
row,Variant,self-cleavage
1,GGCCGGCAGGGUGCCAGCCUCCUCGCUGGCGCCGGCUGGGCAACAUUCCGAGGGGACCGUCCCCUCGGUAAUGGCGAAUGGGACCCA,0.111
2,GGCCGGCAGGGUCCCAGCCCCCUCGCUGGCGCCGGCUGGGCAACAUUCCGAGGGGACCGUCCCCUCGGUAAUGGCGAAUGGGACCCA,0
3,GGCCGGCAGGGUCCCAGCCUCCUCGCUGGCGCCGGAUGGGCAACAUUCCGAGGGGACCGUCCCCUCGGUAAUGGCGAAUGGGACCCA,0.401
4,GGCCGGCAGGGUCCCAGCCUCCUCGCUGGCGCCGGUUGGGCAACAUUCCGAGGGGACCGUCCCCUCGGUAAUGGCGAAUGGGACCCA,0.864
5,GGCCGGCAGGGUCCCAGCAUCCUCGCUGGCGCCGGCUGGGCAACAUUCCGAGGGGACCGUCCCCUCGGUAAUGGCGAAUGGGACCCA,0.208
6,GGCCGGCAGGGUCCCAGCCUCCUCGCUGGCGCCGGCUAGGCAACAUUCCGAGGGGACCGUCCCCUCGGUAAUGGCGAAUGGGACCCA,0.156
7,GGCCGGCAGGGUCCCAGCCUCCUCGCUGGCGCCGGCUGGGCAACAUUCCGAGGGGACCGUCCCCUCGGUAAUGGCGAAUGGGACCCG,1.15
8,GGCCGGCAGGGUCCCAGCCUCCUCGCUGGCGCCGGCUGGUCAACAUUCCGAGGGGACCGUCCCCUCGGUAAUGGCGAAUGGGACCCA,1.06
9,GGCCGGCAGGGUCGCAGCCUCCUCGCUGGCGCCGGCUGGGCAACAUUCCGAGGGGACCGUCCCCUCGGUAAUGGCGAAUGGGACCCA,1.2
10,GGCCGGCAGGGUCUCAGCCUCCUCGCUGGCGCCGGCUGGGCAACAUUCCGAGGGGACCGUCCCCUCGGUAAUGGCGAAUGGGACCCA,1.08
11,GGCCGGCAGGGUCCCAGCCUCCUCGCUGGCGCCGGCUGGGCAACACUCCGAGGGGACCGUCCCCUCGGUAAUGGCGAAUGGGACCCA,0.748
12,GGCCGGCAGGGUCCCAGCCUCCUCGCUGGCGCCGGCUGGGCAACAUUCCGAGGGGACCGUCCCCUCGGUAAUGGCGAAUGGGACCGA,1.33
13,GGCCGGCAGGGUCCCAGCCUCCUCGCUGGCGCCGGCUGGGCAACAUUCCGAGGGGACCGUCCCCUCGGUAAUGGCGAAUGGGACCUA,1.42
14,GGCCGGCAGGGUCCCAGCCUCCUCGCUGGCGCCGGCUGGGCAACAUUCCGAGGGGACCGUCUCCUCGGUAAUGGCGAAUGGGACCCA,0.731
15,GGCCGGCAGGGUCCCAGCCUCCUCGCUGGCGCCGGCUGAGCAACAUUCCGAGGGGACCGUCCCCUCGGUAAUGGCGAAUGGGACCCA,0.475
16,GGCCGGCAGGGUCCCACCCUCCUCGCUGGCGCCGGCUGGGCAACAUUCCGAGGGGACCGUCCCCUCGGUAAUGGCGAAUGGGACCCA,0.166
17,GGCCGGCAGGGUCCCAUCCUCCUCGCUGGCGCCGGCUGGGCAACAUUCCGAGGGGACCGUCCCCUCGGUAAUGGCGAAUGGGACCCA,0.415
18,GGCCGGCAGGGUCCCAGCCUCCUCGCUGGCGCCGGCUGGGCAACAUUCCGAGGGGACCGUCCCCUCGUUAAUGGCGAAUGGGACCCA,0.782
19,GGCCGGCAGGGUCCCAGCCUCCUCGCUGGCGCCGGCUGGGCAACAUUCCGAGGGGACCGUCCCCUCAGUAAUGGCGAAUGGGACCCA,0.88
20,GGCCGGCAGGGUCCCAGCCUCCUCGCUGGCGCCGGCUGGGCAACAUUCCGAGGGGACCGUCCCCUCGGUAAAGGCGAAUGGGACCCA,0.633
21,GGCCGGCAGGGUCCCAGCCUCCUCGCUGGCGCCGGCUGGGCAACAUUCCGAGGGGACCGUCCCCUCGGUAAGGGCGAAUGGGACCCA,0.776
22,GGCCGGCAGGGUCCCAGCCUCCUCGCUGGCGCCGGCUGGGCAAAAUUCCGAGGGGACCGUCCCCUCGGUAAUGGCGAAUGGGACCCA,0.415

row,Variant,self-cleavage
1,GGCCGGCAGGGUCCCAGCCUCCUCGCUGGCGCCGGCUGGGCAACAUUCCGAGGGGACCGUCCCCUCGGUAAUGGCGAAUGAGACCCA,0.8
2,GGCCGGCAGGGUCCCAGCCUCCUCGCUGGCGCCGGCUGGGCAACAUUCCGAGGGGACCGUCCCCUCGGUAAUCGCGAAUGGGACCCA,0.767
3,GGCCGGCAGGGUCCCAGCCUCCUCGCUGGCGCCGGCUGGGCAACAUUCCGAGGGGACCGUCCCCUCGGUAAUAGCGAAUGGGACCCA,0.665
4,GGCCGGCAGGGUCCCAGCCUCCUCGCUGGCGCCGGCUGGGCAACAUUCCGAGGGAACCGUCCCCUCGGUAAUGGCGAAUGGGACCCA,0.962
5,GGCCGGCAGGGUCCCAGCCUCCUCGCUGGCGCCGGCUGGGCAACAUUCCGAGGGGCCCGUCCCCUCGGUAAUGGCGAAUGGGACCCA,0.462
6,GGCCGGCAGGGUCCCAGCCUCCUCGCUGGCGCCGGCUGGGCAACAUUCCGAGGGGACCGUCCGCUCGGUAAUGGCGAAUGGGACCCA,1.17
7,GGCCGGCAGGGUCCCAGCCUCCUCGCUGGCGCCGGCUGGGCAACAUGCCGAGGGGACCGUCCCCUCGGUAAUGGCGAAUGGGACCCA,1.21
8,GGCCGGCAGGGUCCCAGCCUCCUCGCUGGCGCCGGCUGGGCAACAUUCCGAGGGGACCGUCCCCUCGGUCAUGGCGAAUGGGACCCA,0.886
9,GGCCGGCAGGGUCCCAGCCUCCUCGCUGGCGCCGGCUGGGCAACAUUCCGAGGGGACCGUCCCCUCGGUUAUGGCGAAUGGGACCCA,0.739
10,GGCCGGCAGGGUCCCAGCCUCCUCGCUGGCGCCGGCUGGGCAACAUUCCGAGGGGACCGUCCCCUCGGUAAUGGCGAAUGGCACCCA,0.646
11,GGCCGGCAGGGUCCCAGCCUCCUCGCUGCCGCCGGCUGGGCAACAUUCCGAGGGGACCGUCCCCUCGGUAAUGGCGAAUGGGACCCA,0
12,GGCCGGCAGGGUCCCAGCCUCCUCGCUGACGCCGGCUGGGCAACAUUCCGAGGGGACCGUCCCCUCGGUAAUGGCGAAUGGGACCCA,0.123
13,GGCCGGCAGGGUCCCAGCCUCCUCGCUGGCGCCGGCUGGGCAACAUUCCGAGGGGACUGUCCCCUCGGUAAUGGCGAAUGGGACCCA,1.2
14,GGCCGGCAUAGUCCCAGCCUCCUCGCUGGCGCCGGCUGGGCAACAUUCCGAGGGGACCGUCCCCUCGGUACUGGCGAAUGGGACCCA,0.456
15,GGCCGGCAUAGUCCCAGCCUCCUCGCUGGCGCCGGCUGGGCAACAUUCCGAGGGGACCGUCCCCUCGGUAGUGGCGAAUGGGACCCA,0.703
16,GGCCGGCAUAGUCCCAGCCUCCUCGCUGGCGCCGGCUGGGCAACAUUCCGUGGGGACCGUCCCCUCGGUAAUGGCGAAUGGGACCCA,0.923
17,GGCCGGCAGGGUCCCAGCCUCCUCGCUGGCGCCGGCUGGGCAACAUUGCGAGGGGACCGUCCCCUCGGUAAUGGCGAAUGGGACCCA,0.997
18,GGCCGGCAGGGUCCCAGCCUCCUCGCUGGCGCCGGCUGGGCAACAUUACGAGGGGACCGUCCCCUCGGUAAUGGCGAAUGGGACCCA,1.25
19,GGCCGGCAGGGUCCCAGCCUCCUCGCUGGCGCCAGCUGGGCAACAUUCCGAGGGGACCGUCCCCUCGGUAAUGGCGAAUGGGACCCA,0.344
20,GGCCGGCAGGGUCCCAGCCUCCUCGCUGGCGCCGGCUGGGCAACCUUCCGAGGGGACCGUCCCCUCGGUAAUGGCGAAUGGGACCCA,0.712
21,GGCCGGCAGGGUCCCAGCCUCCUGGCUGGCGCCGGCUGGGCAACAUUCCGAGGGGACCGUCCCCUCGGUAAUGGCGAAUGGGACCCA,0.453
22,GGCCGGCAUAGUCCCAGCCUCCUCGCUGGCGCCGGCUGGGCAACAUUCCGAGGGGACCGUCCCCUCGGUAAUGGCGCAUGGGACCCA,0.237

row,Variant,self-cleavage
1,GGCCGGCAGGGUCCCAGCCUCCUCGCUGGCGCCGGCUGGGCAACAUUCCUAGGGGACCGUCCCCUCGGUAAUGGCGAAUGGGACCCA,1.15
2,GGCCGGCAGGGUCCCAGCCUCCUCGCUGGCGCCGGCUGGGCAACAUUCCGAGGGGACCGUUCCCUCGGUAAUGGCGAAUGGGACCCA,1.05
3,GGCCGGCAGGGUCCCAGCCUCCUCGCUGGCGCCGGCUGGGCAACAUUCCGAGGGGACCGUCCCCUCGGUAAUGGCGGAUGGGACCCA,0.767
4,GGCCGGCAGGGUCCCAGCCUCCUCGCUGGCGCCGGCUGGGCAACAUUCCGAGGGGACCGUCCCCUCGGUAAUGGCGAAAGGGACCCA,0.68
5,GGCCGGCAGGGUCCCAGCCUCCUCGCUGGCGCCGGCUGGGCAACAUUCCGAGGGGACCGUCCCCUCGGUAAUGGCGAUUGGGACCCA,0.0692
6,GGCCGGCAGAGUCCCAGCCUCCUCGCUGGCGCCGGCUGGGCAACAUUCCGAGGGGACCGUCCCCUCGGUAAUGGCGAAUGGGACCCA,1.25
7,GGCCGGCAGGGUCCCAGCCUCCUCGCUGGCGCCGGCUGGGCAACAUUCCGAGGGGACCGUCCCCUCGGUAAUGGCGAAUGGGAACCA,0.554
8,GGCCGGCAGGGUCCCAGCCUCCUCGCUGGCGCUGGCUGGGCAACAUUCCGAGGGGACCGUCCCCUCGGUAAUGGCGAAUGGGACCCA,0.87
9,GGCCGGCAGGGUCCCAGCCUCCUCGCUGGCGCCGCCUGGGCAACAUUCCGAGGGGACCGUCCCCUCGGUAAUGGCGAAUGGGACCCA,0.0639
10,GGCCGGCAGGGUCCCAGCCUCCUCGCUGGCGCCGGCUGGGAAACAUUCCGAGGGGACCGUCCCCUCGGUAAUGGCGAAUGGGACCCA,0.831
11,GGCCGGCAGGGUCCCAGCCUCCUCGCUGGCGCCGGCUGGGUAACAUUCCGAGGGGACCGUCCCCUCGGUAAUGGCGAAUGGGACCCA,0.997
12,GGCCGGCAGGGUCCCAGCCUCCUCGAUGGCGCCGGCUGGGCAACAUUCCGAGGGGACCGUCCCCUCGGUAAUGGCGAAUGGGACCCA,1.23
13,GGCCGGCAGGGUCCCAGCCUCCUCGUUGGCGCCGGCUGGGCAACAUUCCGAGGGGACCGUCCCCUCGGUAAUGGCGAAUGGGACCCA,0.554
14,GGCCGGCAGGGUCCCAGCCUCCUCGCUGGCGCCGGCUGGGCUACAUUCCGAGGGGACCGUCCCCUCGGUAAUGGCGAAUGGGACCCA,0.587
15,GGCCGGCAGGGUCCCAGCCUCCUCGCUGGCGCCGGCUGGGCAACAUUCCGAGGGGAUCGUCCCCUCGGUAAUGGCGAAUGGGACCCA,1.03
16,GGCCGGCAGGGUCCCAGCCUCCUCGCUGGCGCCGGCGGGGCAACAUUCCGAGGGGACCGUCCCCUCGGUAAUGGCGAAUGGGACCCA,0.111
17,GGCCGGCAGGGUCCCAGCCUCCUCGCUGGCGCCGGCUGGGCAACAUUCCGAGGGGACCGUCCCCUCGGGAAUGGCGAAUGGGACCCA,0.767
18,GGCCGGCAGGGUCCCAGCCUCCUCGCUGGCGCCGGCUGGGCAACAUUCCGAGGGGACCGUCCCCUCGGAAAUGGCGAAUGGGACCCA,0.831
19,GGCCGGCAGGGUCCCAGCCUCCUCGCUGGCGCCGGCUGGGCAACAUUCCGAGGGGACCGUCCCCUCGGUAAUGCCGAAUGGGACCCA,0.437
20,GGCCGGCAGGGUCCCAGCCUCCUCGCUGGCGCCGGCUGGGCAACAUUCCGAGGGGACCGUCCCCUCGGUAAUGACGAAUGGGACCCA,0.751
